Experimental data reported in article PMC6358694, “Crystal structure of the WD40 domain dimer of LRRK2” (Proceedings of the National Academy of Sciences of the …, 2019).

Legend:
[1] = biological target: the molecule itself; test: SEC; gel filtration chromatography; WT serially diluted from 2 mg/mL to 0.25 mg/mL; mutants compared with WT at matched concentrations by elution position
[2] = biological target: the molecule itself; test: SEC-MALS; MBP-tagged WD40 domain injected at 2 mg/mL; in-line size exclusion column, three-angle light scattering and refractive index detectors

B1: LRRK2 WD40 domain mutant M2408E (domain or fragment, human, UniProt Q5S007 2142-2527, looked up)
chain: RRILLPKNVIVECMVATHHNSRNASIWLGCGHTDRGQLSFLDLNTEGYTSEEVADSRILCLALVHLPVEKESWIVSGTQSGTLLVINTEDGKKRHTLEKMTDSVTCLYCNSFSKQSKQKNFLLVGTADGKLAIFEDKTVKLKGAAPLKILNIGNVSTPLMCLSESTNSTERNVMWGGCGTKIFSFSNDFTIQKLIETRTSQLFSYAAFSDSNIITVVVDTALYIAKQNSPVVEVWDKKTEKLCGLIDCVHFLREVMVKENKESKHKESYSGRVKTLCLQKNTALWIGTGGGHILLLDLSTRRLIRVIYNFCNSVRVMMTAQLGSLKNVMLVLGYNRKNTEGTQKQKEIQSCLTVWDINLPHEVQNLEKHIEVRKELAEKMRRTSVE
notes: LRRK2, human, WD40 domain, residues 2142-2527, with M2408E; Probably MBP-tagged and from Sf9 as the WT; methods in the SI Appendix; source: purified proteins
B1: binds [1].

B2: LRRK2 WD40 domain PD-associated variant Y2189C (domain or fragment, human, UniProt Q5S007 2142-2527, looked up)
chain: RRILLPKNVIVECMVATHHNSRNASIWLGCGHTDRGQLSFLDLNTEGCTSEEVADSRILCLALVHLPVEKESWIVSGTQSGTLLVINTEDGKKRHTLEKMTDSVTCLYCNSFSKQSKQKNFLLVGTADGKLAIFEDKTVKLKGAAPLKILNIGNVSTPLMCLSESTNSTERNVMWGGCGTKIFSFSNDFTIQKLIETRTSQLFSYAAFSDSNIITVVVDTALYIAKQNSPVVEVWDKKTEKLCGLIDCVHFLREVMVKENKESKHKMSYSGRVKTLCLQKNTALWIGTGGGHILLLDLSTRRLIRVIYNFCNSVRVMMTAQLGSLKNVMLVLGYNRKNTEGTQKQKEIQSCLTVWDINLPHEVQNLEKHIEVRKELAEKMRRTSVE
notes: LRRK2, human, WD40 domain, residues 2142-2527, with the PD-associated variant Y2189C; Probably MBP-tagged and from Sf9 as the WT; methods in the SI Appendix; source: purified proteins
B2: binds [1].

B3: MBP-tagged LRRK2 WD40 domain, wild type (domain or fragment, human, UniProt Q5S007 2142-2527, looked up)
chain: RRILLPKNVIVECMVATHHNSRNASIWLGCGHTDRGQLSFLDLNTEGYTSEEVADSRILCLALVHLPVEKESWIVSGTQSGTLLVINTEDGKKRHTLEKMTDSVTCLYCNSFSKQSKQKNFLLVGTADGKLAIFEDKTVKLKGAAPLKILNIGNVSTPLMCLSESTNSTERNVMWGGCGTKIFSFSNDFTIQKLIETRTSQLFSYAAFSDSNIITVVVDTALYIAKQNSPVVEVWDKKTEKLCGLIDCVHFLREVMVKENKESKHKMSYSGRVKTLCLQKNTALWIGTGGGHILLLDLSTRRLIRVIYNFCNSVRVMMTAQLGSLKNVMLVLGYNRKNTEGTQKQKEIQSCLTVWDINLPHEVQNLEKHIEVRKELAEKMRRTSVE
notes: leucine-rich repeat kinase 2 (LRRK2), human, WD40 domain, residues 2142-2527; MBP-tagged monomer calculated at about 83 kDa; The tag is named for the MALS runs; also called WT WD40 domain; source: Sf9 insect cells via baculovirus infection, purified to homogeneity
For B3, the “stoichiometry N” value [2] was 2.
